Experiments:
[1] = target: T1, CD24 on human cells (HT29, colo257, Panc-1, sh-sy5y, PBMCs) (human, UniProt P25063 27-59); test: whole cell ELISA and flow cytometry on HT29 cells (HCT116 as low-CD24 control)
T1 construct: whole, on cells; also called CD24-positive cells
T1 chain (looked up): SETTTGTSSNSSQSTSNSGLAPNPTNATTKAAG

CD24 antigen = target: T2, CD24 antigen (UniProt P25063 27-59); test: Biacore SPR
T2 chain: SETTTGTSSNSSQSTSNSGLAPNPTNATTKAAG

binding result [1]: binds
Kd (CD24 antigen): 18 nM
B1: humanized matured NS17 anti-CD24 antibody (antibody, V domains shown)
VH: QVHLQESGPGLVKPSQTLSLTCAVSGYSISSGYTWHWIRQPPGKTVEWIGYIQYTGSTRYNPALRGRLTMSVDTSKNQFSLKLISVTAADTGVYFCARGTTASFDYWGQGTTVTVSS
VL: DIVMTQSPDSLNVSLGERATIRCRSSQSLLYSSDQKNYLTWYQQKPGQPPKLLISWASPRASGVPDRFSGSGSGTDFTLTISSLQAEDVGVYYCQQYFIYPLTFGVGTKLELK
notes: Tested as whole IgG with human CH1-CH3 and Ck, expressed from the pcDNA4-PCMV-TetO2-IgL-PCMV-TetO2-IgH vector; also called matured antibody

Reference: patent publication US20220112303A1 (ICHILOV TECH, published 2022)
